{
  "source": "paper PMC5045189",
  "about": "“High Resolution Mapping of Bactericidal Monoclonal Antibody Binding Epitopes on Staphylococcus aureus Antigen MntC” (PLoS Pathogens, 2016)",
  "binders": {"B1": {"name": "monoclonal antibody mAB 305-78-7 (intact antibody, interference group 2) (antibody, V domains shown)", "VH": "QVQLQQSGAELARPGASVKMSCKASGYTFTRYTMHWVQQRPGQGLEWIGYINPSSDYTKYNQKFKDKATMTADKSSSTAYMQLSSLTSEDSAVYYCARKEDVGYWYFDFWGTGTTVTVSS", "VL": "not shown", "notes": "source: generation previously described [3]"}},
  "key": {"[1]": {"molecular_target": "T1, Histidine-tagged wild-type MntC (pET-19b) (Staphylococcus aureus)", "T1 construct": "source: E. coli BL21(DE3), purified (HisPur Ni-NTA Agarose, size-exclusion chromatography); not shown: His-tag, N-terminal, kept", "T1 chain": "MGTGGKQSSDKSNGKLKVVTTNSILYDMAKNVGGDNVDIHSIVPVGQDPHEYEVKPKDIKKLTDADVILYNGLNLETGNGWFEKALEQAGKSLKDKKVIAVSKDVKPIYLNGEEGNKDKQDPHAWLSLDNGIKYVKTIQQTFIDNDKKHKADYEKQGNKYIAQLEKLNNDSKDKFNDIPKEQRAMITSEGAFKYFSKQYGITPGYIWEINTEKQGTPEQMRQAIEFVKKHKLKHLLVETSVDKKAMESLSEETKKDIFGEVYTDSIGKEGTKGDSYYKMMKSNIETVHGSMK", "assay": "BLI", "conditions": "both partners purified"}, "[2]": {"molecular_target": "T2, Staphylococcus aureus manganese transporter protein MntC, wild type, recombinant (Staphylococcus aureus)", "T2 construct": "also called wild type MntC; full length MntC; source: recombinant; cloning, expression and purification previously described [3]", "T2 chain": "T1 chain", "assay": "ITC", "conditions": "both partners purified"}},
  "data": [
    {"binder": "B1", "values": [
      {"measurement": "Kd", "setting": "[1]", "value": 1.2, "unit": "nM"},
      {"measurement": "koff", "setting": "[1]", "value": 0.00024, "unit": "s⁻¹"},
      {"measurement": "kon", "setting": "[1]", "value": 220000, "unit": "M⁻¹ s⁻¹"},
      {"measurement": "Kd", "setting": "[2]", "value": 1.2, "unit": "nM"},
      {"measurement": "dH", "setting": "[2]", "value": -19.9, "unit": "kcal/mol"}
    ]}
  ]
}
